Measurements taken from US20260250352A1 (ALPINE IMMUNE SCIENCES, published 2026).
Where “and” joins values, the source holds several entries; their conditions need not be identical. Identical values can stand only once. Like-named read-outs stand apart in the source and are kept apart here.

Key:
[1] = molecular target: T1, recombinant human APRIL (human, UniProt O75888 105-250, limits assumed); experiment: SPR, apparent (ka app); apparent (ka app)
T1 construct: also called TNFSF13
T1 sequence (looked up): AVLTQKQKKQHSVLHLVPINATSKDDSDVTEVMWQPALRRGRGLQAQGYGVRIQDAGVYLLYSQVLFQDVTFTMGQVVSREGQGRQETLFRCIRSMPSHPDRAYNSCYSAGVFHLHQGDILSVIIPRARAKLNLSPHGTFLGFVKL

[2] = molecular target: T1, recombinant human APRIL; experiment: cell-based or functional assay
[3] = molecular target: T2, recombinant human BAFF (human, UniProt Q9Y275 134-285); experiment: cell-based or functional assay
[4] = molecular target: T2, recombinant human BAFF; experiment: SPR
[5] = molecular target: T2, recombinant human BAFF; experiment: SPR; remark: listed apart in the source
[6] = molecular target: T2, recombinant human BAFF; experiment: cell-based or functional assay; remark: listed apart in the source
[7] = molecular target: T3, recombinant mouse BAFF (mouse, UniProt Q9WU72 127-309); experiment: cell-based or functional assay
[8] = molecular target: T1, recombinant human APRIL; experiment: cell-based or functional assay; remark: listed apart in the source
[9] = molecular target: T2, recombinant human BAFF; experiment: cell-based or functional assay; remark: listed apart in the source
[10] = molecular target: T1, recombinant human APRIL; experiment: SPR, apparent (kd app)
[11] = molecular target: single chain BAFF homotrimer (BAFF-BAFF-BAFF) (human, UniProt Q9Y275 140-285, limits assumed); experiment: cell-based or functional assay
[12] = molecular target: single chain APRIL-BAFF-BAFF heterotrimer (ABB) (human, UniProt O75888 111-250; Q9Y275 140-285; Q9Y275 140-285, limits assumed); experiment: cell-based or functional assay
[13] = molecular target: BAFF 60-mer (human, UniProt Q9Y275 134-285, limits assumed); experiment: cell-based or functional assay
[14] = molecular target: single chain BAFF-APRIL-APRIL heterotrimer (BAA) (human, UniProt Q9Y275 140-285; O75888 111-250; O75888 111-250, limits assumed); experiment: cell-based or functional assay
[15] = molecular target: rat BAFF (rat); experiment: cell-based or functional assay
[16] = molecular target: T1, recombinant human APRIL; experiment: cell-based or functional assay; remark: listed apart in the source
[17] = molecular target: cynomolgus monkey APRIL (cynomolgus monkey); experiment: cell-based or functional assay
[18] = molecular target: T2, recombinant human BAFF; experiment: cell-based or functional assay; remark: listed apart in the source
[19] = molecular target: rat APRIL (rat); experiment: cell-based or functional assay
[20] = molecular target: T3, recombinant mouse BAFF; experiment: cell-based or functional assay; remark: listed apart in the source
[21] = molecular target: T4, recombinant mouse APRIL (mouse, UniProt Q9D777 96-241, limits assumed); experiment: cell-based or functional assay
T4 sequence (looked up): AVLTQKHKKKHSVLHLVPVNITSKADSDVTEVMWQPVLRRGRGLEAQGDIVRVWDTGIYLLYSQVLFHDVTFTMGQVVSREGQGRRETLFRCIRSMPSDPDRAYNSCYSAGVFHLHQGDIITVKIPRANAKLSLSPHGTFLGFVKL

[22] = molecular target: cynomolgus monkey BAFF (cynomolgus monkey, UniProt A0A2K5V2X4 134-285); experiment: cell-based or functional assay
[23] = molecular target: T1, recombinant human APRIL; experiment: cell-based or functional assay; remark: listed apart in the source
[24] = molecular target: T2, recombinant human BAFF; experiment: cell-based or functional assay; remark: listed apart in the source
[25] = molecular target: T1, recombinant human APRIL; experiment: SPR, apparent (KD app)
[26] = molecular target: T1, recombinant human APRIL; experiment: cell-based or functional assay; remark: listed apart in the source
[27] = molecular target: T2, recombinant human BAFF; experiment: cell-based or functional assay; remark: listed apart in the source
[28] = molecular target: T1, recombinant human APRIL; experiment: cell-based or functional assay; remark: listed apart in the source
[29] = molecular target: T2, recombinant human BAFF; experiment: cell-based or functional assay; remark: listed apart in the source
[30] = molecular target: T3, recombinant mouse BAFF; experiment: cell-based or functional assay; remark: listed apart in the source
[31] = molecular target: T4, recombinant mouse APRIL; experiment: cell-based or functional assay; remark: listed apart in the source
[32] = molecular target: T2, recombinant human BAFF; experiment: cell-based or functional assay; remark: listed apart in the source
[33] = molecular target: T1, recombinant human APRIL; experiment: cell-based or functional assay; remark: listed apart in the source
[34] = molecular target: T2, recombinant human BAFF; experiment: cell-based or functional assay; remark: listed apart in the source
[35] = molecular target: T1, recombinant human APRIL; experiment: cell-based or functional assay; remark: listed apart in the source
[36] = molecular target: T2, recombinant human BAFF; experiment: cell-based or functional assay; remark: listed apart in the source

T3 sequence (Q9WU72 127-309 limits assumed): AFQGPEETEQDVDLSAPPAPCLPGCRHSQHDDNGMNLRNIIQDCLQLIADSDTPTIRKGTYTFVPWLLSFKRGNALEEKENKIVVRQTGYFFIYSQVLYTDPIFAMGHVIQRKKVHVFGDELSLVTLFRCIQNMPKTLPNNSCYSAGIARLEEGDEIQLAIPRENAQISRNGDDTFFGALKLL

B1: 26 TACI CRD2-Fc (Fc fusion)
chain: SLSCRKEQGEYYDHLLRDCISCASICGQHPKQCADFCENKLRSGSGGGGSEPKSSDKTHTCPPCPAPEAEGAPSVFLFPPKPKDTLMISRTPEVTCVVVDVSHEDPEVKFNWYVDGVEVHNAKTKPREEQYNSTYRVVSVLTVLHQDWLNGKEYKCKVSNKALPAPIEKTISKAKGQPREPQVYTLPPSRDELTKNQVSLTCLVKGFYPSDIAVEWESNGQPENNYKTTPPVLDSDGSFFLYSKLTVDKSRWQQGNVFSCSVMHEALHNHYTQKSLSLSPG
notes: also called TACI (26)-Fc_73; 26 TACI-Fc
With B1 the kon [1] was 7e+09 M⁻¹ s⁻¹, the “fold better neutralization than the anti-APRIL mAb” value [2] was 5.7 fold and the “fold better neutralization than belimumab” value [3] was 3.4 fold. For the same binder, the “fold better affinity than telitacicept” value [4] was about 8 fold, the Kd [5] was 0.0593 nM and the koff [5] was 3.67e-05 s⁻¹. The kon [5] was 619000 M⁻¹ s⁻¹, the “IC50 (read off the curve), human BAFF, NF-κB luciferase reporter, Jurkat/NF-κB/TACI cells” value [6] was about 1 nM and the “IC50 (read off the curve), mouse BAFF, NF-κB luciferase reporter, Jurkat/NF-κB/TACI cells” value [7] was about 1 nM. The “IC50, Jurkat/NF-kB/TACI reporter” value [8] was 9.21 nM, the “IC50 relative to WT TACI (68-110)-Fc (Δ WT)” value [8] was 0.75 ratio and the “IC50, Jurkat/NF-kB/TACI reporter” value [9] was 1.55 nM. The “IC50 relative to WT TACI (68-110)-Fc (Δ WT)” value [9] was 0.84 ratio, the koff [10] was 0.007 s⁻¹ and the “IC50, TACI/Jurkat/NF-kB reporter” value [11] was 3.36 nM. The “IC50, TACI/Jurkat/NF-kB reporter” value [12] was 0.103 nM, the “IC50, TACI/Jurkat/NF-kB reporter” value [13] was 14.7 nM and the “IC50, TACI/Jurkat/NF-kB reporter” value [14] was under 0.016 nM. For the same binder, the “IC50, Jurkat/NF-kB/TACI reporter” value [15] was 3.8 nM, the “IC50, Jurkat/NF-kB/TACI reporter” value [16] was 3.4 nM and the “IC50, Jurkat/NF-kB/TACI reporter” value [17] was 3.3 nM. For the same binder, the “IC50, Jurkat/NF-kB/TACI reporter” value [18] was 2.8 nM, the “IC50, Jurkat/NF-kB/TACI reporter” value [19] was 22.7 nM and the “IC50, Jurkat/NF-kB/TACI reporter” value [20] was 15.2 nM. The “IC50, Jurkat/NF-kB/TACI reporter” value [21] was 24.5 nM, the “IC50, Jurkat/NF-kB/TACI reporter” value [22] was 1.9 nM and the “IC50, Jurkat/NF-kB/TACI reporter” value [23] was 1.76 nM. For the same binder, the “IC50, Jurkat/NF-kB/TACI reporter” value [24] was 1.34 nM, the Kd [25] was 0.001 nM and the “IC50, Jurkat/NF-kB/TACI reporter” value [26] was 214 nM. For the same binder, the “IC50 relative to TACI 30-110” value [26] was 0.05 ratio, the “IC50, Jurkat/NF-kB/TACI reporter” value [27] was 1270 nM and the “IC50 relative to TACI 30-110” value [27] was 0.28 ratio. For the same binder, the “IC50, TACI/Jurkat/NF-kB reporter” value [28] was 3.8 nM, the “IC50, TACI/Jurkat/NF-kB reporter” value [29] was 1.4 nM and the “IC50, TACI/Jurkat/NF-kB reporter” value [30] was 1 nM. For the same binder, the “IC50, TACI/Jurkat/NF-kB reporter” value [31] was 0.9 nM, the “IC50 (read off the curve), human BAFF, NF-κB luciferase reporter, TACI/Jurkat/NF-κB cells” value [32] was 1 to 2 nM and the “IC50, Jurkat/NF-kB/TACI reporter” value [33] was 179 nM. The “IC50 relative to TACI 30-110-Fc” value [33] was 0.05 ratio, the “IC50, Jurkat/NF-kB/TACI reporter” value [34] was 1220 nM and the “IC50 relative to TACI 30-110-Fc” value [34] was 0.21 ratio.

B2: Telitacicept (Fc fusion)
chain: SRVDQEERFPQGLWTGVAMRSCPEEQYWDPLLGTCMSCKTICNHQSQRTCAAFCRSLSCRKEQGKFYDHLLRDCISCASICGQHPKQCAYFCENKLRSPVNLPPEL
modifications: The drug is a disulfide-linked Fc-fusion homodimer. Only one TACI ECD arm is given, and the Fc is left out.
notes: Commercial product (sourced through Clinigen; RemeGen); also called Telitacicept/Tai'ai (RemeGen); WT TACI-Fc (Telitacicept); not shown: Fc part of the commercial drug (Clinigen/RemeGen)
B2 showed a Kd [5] of 0.491 nM, a koff [5] of 8.63e-05 s⁻¹ and a kon [5] of 175000 M⁻¹ s⁻¹. For the same binder, the “IC50, Jurkat/NF-kB/TACI reporter” value [9] was 9.17 nM and 7.3 nM, the “IC50, TACI/Jurkat/NF-kB reporter” value [11] was 30.8 nM and the “IC50, TACI/Jurkat/NF-kB reporter” value [12] was 0.408 nM. For the same binder, the “IC50, TACI/Jurkat/NF-kB reporter” value [13] was over 100 nM, the “IC50, TACI/Jurkat/NF-kB reporter” value [14] was 0.173 nM and the “IC50, Jurkat/NF-kB/TACI reporter” value [23] was 17.2 nM. The “IC50, Jurkat/NF-kB/TACI reporter” value [24] was 6.85 nM, the “IC50, TACI/Jurkat/NF-kB reporter” value [28] was 53.9 nM and the “IC50, TACI/Jurkat/NF-kB reporter” value [29] was 14.5 nM. For the same binder, the “IC50, TACI/Jurkat/NF-kB reporter” value [30] was 7.9 nM and the “IC50, TACI/Jurkat/NF-kB reporter” value [31] was 15.5 nM.

B3: Belimumab (antibody, V domains shown)
VH: QVQLQQSGAEVKKPGSSVRVSCKASGGTFNNNAINWVRQAPGQGLEWMGGIIPMFGTAKYSQNFQGRVAITADESTGTASMELSSLRSEDTAVYYCARSRDLLLFPHHALSPWGRGTMVTVSS
VL: SSELTQDPAVSVALGQTVRVTCQGDSLRSYYASWYQQKPGQAPVLVIYGKNNRPSGIPDRFSGSSSGNTASLTITGAQAEDEADYYCSSRDSSGNHWVFGGGTELTVLG
For B3, the “IC50, Jurkat/NF-kB/TACI reporter” value [9] was 2.19 nM, the “IC50 relative to WT TACI (68-110)-Fc (Δ WT)” value [9] was 1.18 ratio and the “IC50, TACI/Jurkat/NF-kB reporter” value [11] was 8.52 nM. The “IC50, TACI/Jurkat/NF-kB reporter” value [12] was 0.09 nM, the “IC50, Jurkat/NF-kB/TACI reporter” value [24] was 2.26 nM and the “IC50, TACI/Jurkat/NF-kB reporter” value [29] was 4.8 nM. The “IC50, Jurkat/NF-kB/TACI reporter” value [34] was 2500 nM and the “IC50 relative to TACI 30-110-Fc” value [34] was 0.43 ratio.

B4: WT TACI 13-118-Fc based on the published telitacicept sequence (Fc fusion)
chain: SRVDQEERFPQGLWTGVAMRSCPEEQYWDPLLGTCMSCKTICNHQSQRTCAAFCRSLSCRKEQGKFYDHLLRDCISCASICGQHPKQCAYFCENKLRSPVNLPPEL
B4 was tested, and the “IC50, TACI/Jurkat/NF-kB reporter” value [28] was 73.1 nM, the “IC50, TACI/Jurkat/NF-kB reporter” value [29] was 19.6 nM and the “IC50, TACI/Jurkat/NF-kB reporter” value [30] was 9.4 nM. For the same binder, the “IC50, TACI/Jurkat/NF-kB reporter” value [31] was 14.3 nM.

B5: 7 TACI CRD1/CRD2-Fc (Fc fusion)
variant TACI CRD1/CRD2 - linker - Fc chain: VAMRSCPEEQYWDPLLGTCMSCKTICNHQSQRTCAAFCRSLSCRKEQGKFYDHLLRDCISCASICGQHPKQCDYFCENKLRSGSGGGGSEPKSSDKTHTCPPCPAPEAEGAPSVFLFPPKPKDTLMISRTPEVTCVVVDVSHEDPEVKFNWYVDGVEVHNAKTKPREEQYNSTYRVVSVLTVLHQDWLNGKEYKCKVSNKALPAPIEKTISKAKGQPREPQVYTLPPSRDELTKNQVSLTCLVKGFYPSDIAVEWESNGQPENNYKTTPPVLDSDGSFFLYSKLTVDKSRWQQGNVFSCSVMHEALHNHYTQKSLSLSPG
In the case of B5, the “IC50 (read off the curve), human APRIL, NF-κB luciferase reporter, Jurkat/TACI/NF-κB cells” value [35] is reported as about 3 nM and the “IC50 (read off the curve), human BAFF, NF-κB luciferase reporter, Jurkat/TACI/NF-κB cells” value [36] is reported as about 2 nM.
